To fix the notation:
B1: CPEB3 Ribozyme (parent)
chain: UAACAGGGGGCCACAGCAGAAGCGUUCACGUCGCAGCCCCUGUCAGAUUCUGGUGAAUCUGCGAAUUCUGCUGUAUAUCUC

This is an account of results in the RNAGym collection of RNA variant scans (doi:10.1093/nar/gkz1192).

The data set covers variants of B1. The data set is described as follows: self-cleavage, relative activity (ratio to wild type); higher = more cleavage; in vitro, sequencing. The gist of the method: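 Relative activity compares each variant's cleaved/total read fraction with that of the unmutated ribozyme. To get these fractions, barcoded CPEB3 ribozyme libraries from rounds of error-prone PCR were transcribed with T7 RNA polymerase for 5 hours at 37°C and then given 15 min of DNase I treatment before EDTA was added. The RNAs were reverse transcribed with template switching and sequenced on Illumina, and DNA sequencing linked barcodes to variants. A minimum of 5 reads applied, and three batches were averaged.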
Consider A20C U51A, for which the self-cleavage turned out to be 0.32.

For G19A U26C, the self-cleavage stood at 0.31.

On to G19U A35G, for which the self-cleavage worked out at 0.63.

G19U A35U: the self-cleavage is 0.15.

A20C C44U: the self-cleavage stood at 0.22.

Turning to A20G G46A, the self-cleavage was determined as 0.26.

Take A20G G46C: the self-cleavage came to 0.11.

In the case of A20G G46U, the self-cleavage came out at 0.23.

As for G19C A20U, the self-cleavage was 0.4.

On to G19A U25C, for which the self-cleavage stood at 0.13.

Take G19A U25A: the self-cleavage was determined as 0.28.

For the variant G19U C40A, the self-cleavage was 0.21.

For the variant G19A C59U, the self-cleavage came to 0.17.

On to G19U U43C, for which the self-cleavage is 0.1.

On to G19U U43A, for which the self-cleavage amounted to 0.29.

On to G19U A28U, for which the self-cleavage worked out at 0.08.

On to G19U A28G, for which the self-cleavage was determined as 0.14.

A20G C37G: the self-cleavage stood at 0.78.

In the case of A20G C37A, the self-cleavage came to 0.41.

With A20G C37U, the self-cleavage was found to be 0.62.

For A20G G61U, the self-cleavage stood at 0.39.

As to A20G C39A, the self-cleavage was 0.37.

On to A20G C39U, for which the self-cleavage was 0.63.

Take A20G U25C: the self-cleavage came to 0.3.

Regarding A20G U25A, the self-cleavage worked out at 0.27.

In the case of A20G U25G, the self-cleavage was determined as 0.41.

For G19U C44U, the self-cleavage was determined as 0.18.

G19U C44A: the self-cleavage turned out to be 0.43.

Consider A20G C27A, for which the self-cleavage was found to be 0.16.

Regarding A20G C27U, the self-cleavage is 0.47.

In the case of A20C C23A, the self-cleavage turned out to be 0.09.

As to G19A C40G, the self-cleavage was 0.1.

As to G19A C40U, the self-cleavage came to 0.21.

Take A20G G30C: the self-cleavage came out at 0.24.

For A20G G30A, the self-cleavage was found to be 0.3.

For A20G G30U, the self-cleavage was 0.25.

For the variant A20G C62G, the self-cleavage is 0.17.

Regarding A20G C62U, the self-cleavage is 0.2.

For the variant G19U U58C, the self-cleavage amounted to 0.39.

For G19U U58G, the self-cleavage amounted to 0.12.

As for G19U U58A, the self-cleavage came to 0.04.

With A20C C39G, the self-cleavage was determined as 0.07.

With G19U U31C, the self-cleavage worked out at 0.2.

Consider G19A G42A, for which the self-cleavage is 0.15.

On to A20G G63C, for which the self-cleavage amounted to 0.63.

On to A20G G63U, for which the self-cleavage was 0.83.

As for A20G G63A, the self-cleavage amounted to 0.63.

Regarding A20C U26A, the self-cleavage amounted to 0.21.

For A20C U26C, the self-cleavage came out at 0.34.

Consider G19A A75G, for which the self-cleavage was determined as 0.09.

Regarding G19U A65G, the self-cleavage stood at 0.26.

Consider G19U A65U, for which the self-cleavage worked out at 0.09.

With A20C U78C, the self-cleavage was 0.4.

Take G19U U69C: the self-cleavage worked out at 0.09.

Consider G19U U69A, for which the self-cleavage was determined as 0.27.

In the case of A20C A45U, the self-cleavage came out at 0.2.

With A20C A45G, the self-cleavage was determined as 0.33.

On to A20C A45C, for which the self-cleavage is 0.35.

On to G19A U49C, for which the self-cleavage stood at 0.1.

Consider A20G A56U, for which the self-cleavage was 0.47.

For the variant A20G A56G, the self-cleavage stood at 0.66.

As to A20G G52U, the self-cleavage stood at 1.12.

As for A20G G52A, the self-cleavage is 0.9.

Regarding G19U A45U, the self-cleavage is 0.2.

On to G19U A45G, for which the self-cleavage amounted to 0.08.

On to G19U A45C, for which the self-cleavage amounted to 0.22.

As for A20C U69C, the self-cleavage worked out at 0.18.

A20C U69A: the self-cleavage came out at 0.34.

On to G19A U31A, for which the self-cleavage came out at 0.44.

In the case of A20G U54C, the self-cleavage worked out at 0.88.

Take A20G U54A: the self-cleavage worked out at 0.97.

In the case of A20G U54G, the self-cleavage was found to be 0.52.

G19C A77G: the self-cleavage turned out to be 0.24.

For G19U U67A, the self-cleavage turned out to be 0.13.

G19U U67C: the self-cleavage is 0.13.

Take A20C U66C: the self-cleavage was 0.23.

For the variant A20C U66G, the self-cleavage turned out to be 0.45.

Consider A20G C50A, for which the self-cleavage came to 0.89.

In the case of A20G C50G, the self-cleavage stood at 0.57.

A20G C50U: the self-cleavage turned out to be 0.99.

Regarding G19A U67C, the self-cleavage came out at 0.17.

For the variant G19A U67A, the self-cleavage stood at 0.07.

Consider A20C A57G, for which the self-cleavage was determined as 0.09.

As to A20G G33U, the self-cleavage came out at 0.29.

Take A20G G33C: the self-cleavage is 0.14.

Regarding A20G G33A, the self-cleavage is 0.35.

For G19A U72C, the self-cleavage was 0.18.

Take A20C U60C: the self-cleavage was found to be 0.17.

With A20C U60A, the self-cleavage is 0.43.

In the case of G19U U60C, the self-cleavage was found to be 0.28.

For G19U U60A, the self-cleavage was 0.45.

For A20G U43C, the self-cleavage was 0.4.

Turning to A20G U43A, the self-cleavage amounted to 1.05.

Consider A20G U43G, for which the self-cleavage stood at 0.44.

For A20G A21G, the self-cleavage amounted to 0.37.

On to A20G A21C, for which the self-cleavage amounted to 0.32.

Take A20G A21U: the self-cleavage was found to be 0.26.

For A20G G53U, the self-cleavage came out at 0.69.

On to A20G G53A, for which the self-cleavage turned out to be 0.98.

Consider G19U G61C, for which the self-cleavage amounted to 0.13.

In the case of G19U G61A, the self-cleavage is 0.3.

G19U U51C: the self-cleavage is 0.22.

G19U U51A: the self-cleavage is 0.18.

As for G19U A64U, the self-cleavage stood at 0.15.

Consider G19C G22A, for which the self-cleavage is 0.22.

Take A20C C62U: the self-cleavage was 0.12.

Regarding A20C U48C, the self-cleavage stood at 0.28.

For G19U C50U, the self-cleavage came out at 0.38.

Take G19U C50A: the self-cleavage was 0.15.

With G19U A77U, the self-cleavage came out at 0.12.

For the variant G19C A57U, the self-cleavage worked out at 0.13.

In the case of G19C A57G, the self-cleavage came out at 0.23.

Consider G19C G30C, for which the self-cleavage came out at 0.25.

Turning to A20G C23U, the self-cleavage was 0.38.

With G19U G42A, the self-cleavage came to 0.18.

For A20G C71A, the self-cleavage came to 0.15.

Take A20G C71G: the self-cleavage worked out at 0.14.

For the variant A20G C71U, the self-cleavage was determined as 0.56.

Consider G19C U74C, for which the self-cleavage stood at 0.19.

On to A20G C81U, for which the self-cleavage was found to be 1.09.

With A20G C81A, the self-cleavage worked out at 1.09.

Consider A20G C81G, for which the self-cleavage came out at 0.88.

As to A20G G22A, the self-cleavage came out at 0.46.

For the variant G19U U78C, the self-cleavage turned out to be 0.32.

As to A20C U67C, the self-cleavage was determined as 0.33.

G19U C37U: the self-cleavage is 0.38.

With G19U C37A, the self-cleavage was 0.31.

Take A20C C37U: the self-cleavage is 0.13.

Take A20C A21G: the self-cleavage was found to be 0.49.

As to A20C A21U, the self-cleavage turned out to be 0.2.

Turning to A20C A77G, the self-cleavage was found to be 0.11.

For the variant A20C A77U, the self-cleavage amounted to 0.35.

As to G19U G36A, the self-cleavage came out at 0.18.

Take G19U G36C: the self-cleavage stood at 0.19.

Regarding G19U G73U, the self-cleavage is 0.56.

G19U G73A: the self-cleavage is 0.51.

In the case of A20C A64U, the self-cleavage stood at 0.17.

A20C A64G: the self-cleavage turned out to be 0.07.

Regarding G19A A64G, the self-cleavage came out at 0.21.

As to A20C A28G, the self-cleavage is 0.24.

Turning to A20G U48G, the self-cleavage came to 0.31.

With A20G U48A, the self-cleavage worked out at 0.38.

As to A20G U48C, the self-cleavage was 0.4.

In the case of A20C U25C, the self-cleavage was 0.28.

Turning to A20C U25A, the self-cleavage came to 0.31.

As for A20C C27A, the self-cleavage worked out at 0.37.

Consider A20C C34U, for which the self-cleavage worked out at 0.18.

Consider G19C U78C, for which the self-cleavage came to 0.71.

As to G19C C37U, the self-cleavage amounted to 0.16.

On to A20G U51C, for which the self-cleavage was determined as 0.85.

A20G U51A: the self-cleavage amounted to 0.8.

Take A20G U51G: the self-cleavage was 0.82.

As for A20G G36A, the self-cleavage is 0.36.

For the variant A20C A65G, the self-cleavage was 0.42.

For the variant G19C G52U, the self-cleavage came to 0.35.

Regarding A20G G55U, the self-cleavage amounted to 0.62.

On to A20G G55A, for which the self-cleavage is 0.58.

For A20G G73A, the self-cleavage is 1.22.

In the case of A20G G73U, the self-cleavage was 1.19.

As to A20G C29G, the self-cleavage worked out at 0.39.

Regarding A20G C29U, the self-cleavage was determined as 0.36.

As to A20C U80A, the self-cleavage stood at 0.51.

With A20C U80C, the self-cleavage was determined as 0.54.

As to A20C U49C, the self-cleavage amounted to 0.17.

A20C U49A: the self-cleavage came out at 0.16.

For the variant G19U U76A, the self-cleavage was 0.18.

Take G19A U69A: the self-cleavage was 0.14.
